# According to patent publication US8178486B2, “Method for promoting hair growth” (Animal Technology Institute Taiwan, priority 2005, dated 2012):
# Experiments:
# Format in all cases: in vivo
# hair follicles [1] = assay: Hair growth in young mice, topical application to shaved dorsal skin; conditions: 2-month old male ICR mice; for time until hair growth was observed after the treatment: water control 15-17 days
# Experimental: To study the effect of lactoferrin in hair growth in young mice, five male ICR (outbred) mice, each 2 months old, were shaved to expose a portion of dorsal skin. For each treated mouse, the exposed portion of dorsal skin was further marked with three areas as illustrated in FIG. 1A to be subsequently administered different treatments. Referring to FIG. 1B, the three marked areas (from left to right) were treated by spreading topically on the exposed skin areas 60 μl of bovine lactoferrin (as an aqueous solution of 100 mg/ml), 60 μl of bovine lactoferrin (of 200 mg/ml) and 60 μl of control vehicle (water), respectively, on a twice daily basis. Observation for hair growth in the marked areas was made daily after the first treatment. […] The hair growth was observed on all five mice administered 200 mg/ml of lactoferrin 2 to 4 days after the treatment.
# Hematoxylin and Eosin (H&E) staining was performed to microscopically examine the skin area treated with 200 mg/ml of lactoferrin or the control vehicle for 14 days. […] Thus, the proliferation of the anagen phase hair follicles evidently reflected the hair growth observed in the lactoferrin-treated area.
# hair follicles [2] = assay: Hair growth in aged mice, topical application to shaved dorsal skin; conditions: 11-month old male ICR mice; for time until hair began to grow on the treated areas after the treatment: water control 21-23 days
# Experimental: To further test whether lactoferrin could induce hair growth in aged mice, five male ICR mice, each 11 months old, were similarly shaved and marked with three areas of the exposed dorsal skin as described in Example 1. The marked areas of the mice were applied by spreading topically on the exposed skin areas 60 μl of aqueous solutions of bovine lactoferrin (100 mg/ml), 60 μl of bovine lactoferrin (200 mg/ml) and 60 μl of control vehicle (water) twice a day. Observation for hair growth in the marked areas was made daily after the first treatment. […] In general, the mice treated with 200 mg/ml of lactoferrin began to grow hair on the treated areas 4-6 days after the treatment. […] Spontaneous hair growth in the control area was only observed 21-23 days after the treatment. The hair growth-promoting effect of lactoferrin was consistently observed in all tested mice.
# The H&E staining method was performed in a manner similar to Example 1 to examine the skin area treated with 200 mg/ml of lactoferrin or the control vehicle for 14 days. […] Thus, the hair follicles are clearly activated or triggered to re-enter from the telogen-phase to the anagen-phase. The activation of the hair follicles also reflects the hair growth observed in the lactoferrin-treated area.
# hair follicles [3] = assay: Hair growth in 4-month old female mice, topical application to shaved dorsal skin; conditions: 60 μl of 200 mg/ml topically twice daily, after 10 days, not seen with control vehicle
# Experimental: The marked areas of the mice were applied by spreading topically on the exposed skin areas 60 μl of aqueous solutions of bovine lactoferrin (200 mg/ml), 60 μl of control vehicle (water), and 60 μl of bovine lactoferricin, obtained as set forth in Example 3, (200 mg/ml) twice daily. Observation for hair growth in the marked areas is made daily after the first treatment. […] The hair growth-promoting effect of lactoferrin or lactoferricin was consistently observed in all tested mice. Although lactoferricin was prepared by the method described in Example 3 above, the present invention should not be limited to use only lactoferricin prepared in such manner. Lactoferricin prepared by other methods would still fall within the scope of the present invention.
# [4] = 200 mg/ml, 14 days of treatment, H&E histology
molecule,measurement,setting,value
"lactoferrin (protein, UniProt P24627 20-708, looked up, 78-80 kDa glycoprotein; commercially obtained bovine lactoferrin applied as aqueous solution) Lactotransferrin: APRKNVRWCTISQPEWFKCRRWQWRMKKLGAPSITCVRRAFALECIRAIAEKKADAVTLDGGMVFEAGRDPYKLRPVAAEIYGTKESPQTHYYAVAVVKKGSNFQLDQLQGRKSCHTGLGRSAGWIIPMGILRPYLSWTESLEPLQGAVAKFFSASCVPCIDRQAYPNLCQLCKGEGENQCACSSREPYFGYSGAFKCLQDGAGDVAFVKETTVFENLPEKADRDQYELLCLNNSRAPVDAFKECHLAQVPSHAVVARSVDGKEDLIWKLLSKAQEKFGKNKSRSFQLFGSPPGQRDLLFKDSALGFLRIPSKVDSALYLGSRYLTTLKNLRETAEEVKARYTRVVWCAVGPEEQKKCQQWSQQSGQNVTCATASTTDDCIVLVLKGEADALNLDGGYIYTAGKCGLVPVLAENRKSSKHSSLDCVLRPTEGYLAVAVVKKANEGLTWNSLKDKKSCHTAVDRTAGWNIPMGLIVNQTGSCAFDEFFSQSCAPGADPKSRLCALCAGDDQGLDKCVPNSKEKYYGYTGAFRCLAEDVGDVAFVKNDTVWENTNGESTADWAKNLNREDFRLLCLDGTRKPVTEAQSCHLAVAPNHAVVSRSDRAAHVKQVLLHQQALFGKNGKNCPDKFCLFKSETKNLLFNDNTECLAKLGGRPTYEEYLGTEYVTAIANLKKCSTSPLLEACAFLTR",number of anagen phase hair follicles relative to control vehicle-treated area,hair follicles [1]; [4],approximately two-fold
same,skin thickness versus control vehicle-treated skin,hair follicles [1]; [4],no significant difference
same,time until hair growth was observed after the treatment,hair follicles [1]; 60 μl of 100 mg/ml aqueous solution topically twice daily,3 to 5 days
same,time until hair growth was observed after the treatment,hair follicles [1]; 60 μl of 200 mg/ml aqueous solution topically twice daily,2 to 4 days
same,speed of hair growth versus control vehicle-treated skin,"hair follicles [1]; lactoferrin-treated skin (100 and 200 mg/ml), twice daily",more rapid hair growth
same,subcutaneous fat and skin thickness versus control area,"hair follicles [2]; 200 mg/ml, 14 days, H&E",increased subcutaneous fat and increased thickness of skin
same,hair follicle phase in histological examination,"hair follicles [2]; 200 mg/ml, 14 days, H&E, control area uniform telogen-phase follicles",a large number of anagen-phase (actively growing stage) hair follicles
same,hair growth observed in the treated skin area,"hair follicles [2]; 200 mg/ml, after 11 days of treatment, not seen with control vehicle",prominent hair growth
same,time until hair began to grow on the treated areas after the treatment,hair follicles [2]; 60 μl of 100 mg/ml topically twice a day,6 to 8 days
same,time until hair began to grow on the treated areas after the treatment,hair follicles [2]; 60 μl of 200 mg/ml topically twice a day,4 to 6 days
same,inflammation and morphological abnormalities of the treated skin,hair follicles [2]; topical lactoferrin twice a day,no inflammation and morphological abnormalities
same,hair growth observed in the treated skin area,hair follicles [3],prominent hair growth
